Percent of the 3′-end processing factors associated data for 1 substance are collected here from patent publication US20050053985A1.

This experiment addresses 3′-end processing factors. The experiment is described as follows: immunoprecipitation under standard salt conditions.

tRNA endonuclease: the percent of the 3′-end processing factors associated was less than 1%.
